# Test results published in patent US6730503B1 (Roche Vitamins Inc., priority 1996, dated 2004).
# Experiments:
# [1] = Substrate specificity of purified enzymes, PMS-DCIP spectrophotometric assay; assay type: biochemical; conditions: A′ corrected 1.5-fold (purity about 65%)
# Procedure: The enzymatic activity of the AADHs herein can be determined by methods known in the art, such as by photometric analysis using a spectrophotometer. In accordance with the present invention, one unit of enzyme activity was defined as the amount of enzyme which catalyzed the reduction of 1 μmole of DCIP per minute. The extinction coefficient of DCIP at pH 8.0 was taken as 15 mM^−1. In a preferred standard assay for determining the enzyme activity of the AADHs herein, a first cuvette includes a standard reaction mixture (1.0 ml) containing 0.1 mM DCIP, 1 mM PMS, 2 to 125 mM substrate, 50 mM Tris-malate-NaOH buffer (pH 8.0), and 10 μl of the enzyme solution. A second cuvette, i.e., a reference cuvette, contains all the above components except the substrate. The reference cuvette is used to standardize the background absorbance resulting from a substrate-independent (endogenous) reaction. Preferably, a double beam spectrophotometer is used to determine the activity of the enzyme in the presence of a substrate with respect to a standard reaction mixture in the absence of the substrate.
# Enzyme activities of each clone (cell free extract, soluble fraction and membrane fraction) were measured by photometric analysis. The cells of each clone were inoculated in 5 ml of MB medium in a test tube and cultivated at 30° C. for 24 hours. The resulting broth was transferred into 200 ml of fresh MB medium in 500 ml flask and the flask was shaken on the rotary flask shaker at 30° C. for 24 hours. The cells were collected by centrifugation at 6,000×g for 10 minutes and washed with 40 ml of cold buffer consisting of 50 mM Tris-HCl, pH 7.5, 5 mM MgCl2 and 0.5 mM phenylmethylsulfonyl fluoride and suspended with the same buffer to prepare cell suspension of 1 g wet cells per 5 ml. The cell suspension was subjected twice to a French press cell disruptor (1,500 kg/cm^2) and the resulting homogenate was centrifuged at 6,000×g for 10 minutes to remove cell debris. Thus obtained cell free extract (CFE) was centrifuged at 100,000×g for 60 minutes. The resulting supernatant and pellet were collected as the cytosol fraction and the membrane fraction, respectively and subjected to PMS-DCIP assay as follows. The enzyme reaction mixture (1.0 ml) contained 100 μM DCIP, 1 mM PMS, 50 mM Tris malate-NaOH buffer, pH 8.0, a substrate and the enzyme (10 μl). Substrate-dependent decreasing rate of absorbance of DCIP at 600 nm was measured at 25° C. by using a Kontron spectrophotometer UVIKON 810. […] In the A-group, there were three types, A, A′ and A″ each of which was distinguished from each other by their physical map of the DNA carried on each plasmid. B- or C-group each consisted of only one type of protein derived from one region of the chromosomal DNA.
# [2] = Optimal pH, PMS-DCIP assay in buffers of various pH; assay type: biochemical
# Procedure: The Enzymes A″ and B have a relatively wide pH range toward a lower pH, compared with the Enzymes A and A′.
# The enzyme activity was assayed by the PMS-DCIP spectrophotometric assay using various pH buffers. The buffers were 50 mM Tris-malate-NaOH, pH 6.0, 6.5, 7.0, 7.5, 8.0 and 8.5; 50 mM glycine-NaOH, pH 9.0 and 9.5. The extinction coefficients of DCIP at pH 6.0, 6.5, 7.0, 7.5, 8.0, 8.5, 9.0 and 9.5 were taken as 10.8, 13.2, 14.5, 14.9, 15.0, 15.1, 15.1 and 15.1, respectively. […] The Enzymes A″ and B had relatively wide pH range toward lower pH, compared with the Enzymes A and A′.
# [3] = Thermal stability, 5 minutes, residual activity by PMS-DCIP assay; assay type: physicochemical
# Procedure: Table 4 indicates the results of thermal-stabilities of the enzymes. The enzyme (about 0.05 mg/ml) in 25 mM HEPES buffer, pH 7.5, containing 5% sucrose, 0.2 M NaCl, and 5 mM CaCl2 was incubated at temperature indicated in the table (4-60° C.) for 5 minutes, cooled in ice bath and assayed by PMS-DCIP spectrophotometric method. Remaining activity was expressed as relative activity against that obtained by 4° C. incubation.
# [4] = Oxidation product of AADH clones by resting cell reaction followed by TLC analysis; assay type: cell-based, P. putida
# From the text: Enzyme A gene was originally cloned as a cosmid clone of p24D4 which has about 25 kb insert in EcoRI site of pVK100. Then, it was further subcloned to use as an Enzyme A gene cassette. The 2.7 kb EcoRV fragment which includes ORF of Enzyme A gene with about 500 bp of non-coding regions at the both ends was excised from 3.4 kb NruI fragment, which was isolated from p24D4 in M13 mp18, and was ligated to HindIII site of pUC18 with HindIII linker ([…]). The resulting plasmid was designated pSSA202. Enzyme A gene cassette (2.7 kb HindIII fragment) was then inserted at HindIII site of pVK102 to produce pSSA102R. The plasmid pSSA102R was introduced into nalidixic acid resistant P. putida [ATCC 21812] by a conjugal mating method as described in Example 1-(1). The transconjugant of P. putida carrying pSSA102R was selected on MB agar medium containing 50 μg/ml nalidixic acid and 10 μg/ml tetracycline (MNT agar medium) and subjected to a mini-resting cell reaction. […] The reaction mixture was assayed with TLC and 2KGA was identified as the product, while no 2KGA was observed by the same resting cell reaction with the host, nalidixic acid resistant P. putida [ATCC 21812].
# [5] = Products of enzyme reactions with purified enzymes, identified by TLC and/or HPLC; assay type: biochemical
# Procedure: Products formed from a substrate in the reaction with Enzyme A, Enzyme A′, Enzyme A″ or Enzyme B were analyzed by thin layer chromatography (TLC) and/or high performance liquid chromatography (HPLC) with authentic compounds. […] Similarly to the reactivity for L-sorbosone, D-glucosone can be converted to 2KD by all of above mentioned AADHs. A group enzymes can produce 2KD from D-fructose whose possible direct product is D-glucosone. […]
# Enzyme reactions with purified Enzyme A or Enzyme B and various substrates were performed as described in Example 11.
molecule,measurement,setting,value
"Enzyme A″: recombinant AADH of G. oxydans DSM No. 4025, amino acid sequence SEQ ID NO 7, plasmid p26C3 (protein, Gluconobacter oxydans; SIGNAL (1)..(23)) MKLTTLLQSSAALLVLGTIPALAQTAITDEMLANPPAGEWINYGQNQENYRHSPLTQITADNVGQLQLVWARGMEAGKIQVTPLVHDGVMYLANPGDVIQAIDAATGDLIWEHRRQLPNIATLNSFGEPTRGMALYGTNVYFVSWDNHLVALDTSTGQVVFDVDRGQGTDMVSNSSGPIVANGVIVAGSTCQYSPFGCFVSGHDSATGEELWRNTFIPRAGEEGDETWGNDYEARWMTGVWGQITYDPVGGLVHYGTSAVGPAAEIQRGTVGGSMYGTNTRFAVRPETGEIVWRHQTLPRDNWDQECTFEMMVVNVDVQPSAEMEGLHAINPDAATGERRVVTGVPCKNGTMWQFDAETGEFLWARDTSYQNLIESVDPDGLVHVNEDLVVTELEVAYEICPTFLGGRDWPSAALNPDTGIYFIPLNNACSGMTAVDQEFSSLDVYNVSLDYKLSPGSENMGRIDAIDISTGRTLWSAERYASNYAPVLSTGGGVLFNGGTDRYFRALSQETGETLWQTRLATVASGQAISYEIDGVQYVAIGRGGTSYGSNHNRALTERIDSTAIGSAIYVFALPQQ",Substrate specificity,[1]; 2 mM L-Sorbosone,26.5 units/mg of purified protein
same,Substrate specificity,[1]; 50 mM D-Glucose,17.8 units/mg of purified protein
same,Substrate specificity,[1]; 50 mM D-Mannitol,6.2 units/mg of purified protein
same,Substrate specificity,[1]; 50 mM Isopropanol,154.9 units/mg of purified protein
same,Substrate specificity,[1]; 50 mM n-Propanol,262.3 units/mg of purified protein
same,Substrate specificity,[1]; 125 mM D-Fructose,17.3 units/mg of purified protein
same,Substrate specificity,[1]; 125 mM D-Sorbitol,30.1 units/mg of purified protein
same,Substrate specificity,[1]; 125 mM L-Sorbose,30.3 units/mg of purified protein
same,Relative activity (optimal pH),"[2]; assay pH 6.0, pH 8.0 = 100",35.0%
same,Relative activity (optimal pH),"[2]; assay pH 6.5, pH 8.0 = 100",57.3%
same,Relative activity (optimal pH),"[2]; assay pH 7.0, pH 8.0 = 100",74.8%
same,Relative activity (optimal pH),"[2]; assay pH 7.5, pH 8.0 = 100",90.0%
same,Relative activity (optimal pH),[2]; assay pH 8.0,100.0%
same,Relative activity (optimal pH),"[2]; assay pH 8.5, pH 8.0 = 100",85.6%
same,Relative activity (optimal pH),"[2]; assay pH 9.0, pH 8.0 = 100",46.5%
same,Relative activity (optimal pH),"[2]; assay pH 9.5, pH 8.0 = 100",23.9%
same,Relative activity (thermal stability),[3]; 4° C. for 5 minutes (reference),100.0%
same,Relative activity (thermal stability),"[3]; 20° C. for 5 minutes, relative to 4° C. incubation",96.0%
same,Relative activity (thermal stability),"[3]; 30° C. for 5 minutes, relative to 4° C. incubation",86.1%
same,Relative activity (thermal stability),"[3]; 40° C. for 5 minutes, relative to 4° C. incubation",72.8%
same,Relative activity (thermal stability),"[3]; 50° C. for 5 minutes, relative to 4° C. incubation",26.6%
same,Relative activity (thermal stability),"[3]; 60° C. for 5 minutes, relative to 4° C. incubation",13.3%
same,Oxidation product of D-sorbitol,[4],mainly D-glucose
same,Oxidation product of L-sorbose,[4],"*1Oxidation product of L-sorbose by Enzymes A, A′, A″, and [A and B] was 2KGA."
same,Oxidation product of L-sorbosone,[4],"*4Oxidation product of L-sorbosone by Enzymes A, A′, A″, B, and [A and B] was 2KGA."
same,Product,[5]; substrate D-Fructose,2-keto-D-gluconic acid
same,Product,[5]; substrate D-Mannitol,D-mannose
same,Product,[5]; substrate D-Sorbitol,D-glucose with L-gulose
same,Product,[5]; substrate L-Sorbose,L-sorbosone with 2KGA
same,Product,[5]; substrate L-Sorbosone,2KGA
